# Results published in the supplement of paper PMC9170038.
# Tested on: K4 kissing-loop RNA reporter
# Assay: apparent KD of K4 kissing-loop reporter; higher = weaker reporter binding
# Settings: Eterna round: R107
# Description: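 RNA-MaP round R107: designed RNA switches with theophylline, tryptophan, arginine or FMN aptamers are transcribed on-chip within common flanks. They are titrated with a labelled K4 kissing-loop RNA reporter in RNA-MaP buffer (100 mM Tris pH 7.5, 80 mM KCl, 4 mM MgCl2), without ligand or with the indicated ligand. Median apparent KD per design.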
# [1] = input ligand: theophylline 20 uM
# [2] = input ligand: tryptophan 2.4 mM
# 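Also: bound reporter read as fluorescence of individual clusters on recovered sequencing chips by microscopy, with normalized cluster intensities fitted with a binding model.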
Sequence,apparent KD of K4 kissing-loop reporter (input ligand: FMN 200 uM),apparent KD of K4 kissing-loop reporter (input ligand: arginine 13.2 mM),apparent KD of K4 kissing-loop reporter (input ligand: none),apparent KD of K4 kissing-loop reporter [1],apparent KD of K4 kissing-loop reporter [2]
GUGCGCGGUGCGGCCGCCACUCGGAUGCGAGUGAUGUUCGCGGGACGGACGCAAGUCCGUCAUUCGAGGACCGGGCAUGGCUGCA [#2 Same State - Tryptophan B Attempt #6 (HarryS)],197 nM,196 nM,242 nM,183 nM,137 nM
UGAUACCAGGCGGCCGCCACUCCCGCAGGUCAAAGACCUGCGAAGCUGGUUCUCCAGUGAUGUUGGAGGACCGGGCCUGGUAUCU [FiskerMod 26 - Jieux - Exclusion - Tryptophan B],191 nM,141 nM,152 nM,168 nM,436 nM
CAGAACUUAUAUAGAAACUAUAUAAGAGAUACCAGUCAAAUUAAAGACCCUUGGCAGCUCAGGCGAGUGAUGUUCGCAGGCUAAC [Astros-Gfrank-modulation#1],99.3 nM,94.2 nM,102 nM,106 nM,78.8 nM
UCGAAAUGCGACUCCUAGUUACACCGGGAAGGAGCGUGGAUAACCGCAGGUAGGUCGCCCGGAAGCCGGACCAGUGAUGUUGGUC [Exclusion Arginine A Gf 28],207 nM,177 nM,203 nM,274 nM,155 nM
GGGAAGAAGGCGGCCGCCACUGCAGAAGAGACAGAGAGGGAAGAAGAGGAGUGAUGUUCCAAGAACAGGACCGGGCCAAGAAGGG [whbob_SS_Tryp_B_t29],598 nM,137 nM,119 nM,284 nM,92.9 nM
UGGAGUUGACGAAAAGUCAACUCCUGAGAUACCAGUGACGAAAGUCACCCUUGGCAGCUCACUCCCAGUGAUGUUGGUUCAUAAG [#04 K4 Theophylline A Same State],328 nM,370 nM,601 nM,496 nM,356 nM
CGCAGUGAUGUUGCGAAUAUAAUAACGGAAGGAGCGCGUGAAAACGCAGGUAGGUCGCCGAUUGGUAUGAUGGAAACAUCGUACC [Arginine A K4 9],154 nM,134 nM,125 nM,115 nM,122 nM
UAUCUUUACUGAAGGAGCGAGCAUUUUGGAGUGAUGUUCCGAGCGAGUGAUGUUCGCAUAGCUCAGGUAGGUCGCAGUGGGAAAA [Same State Arginie B GF 15],152 nM,149 nM,143 nM,162 nM,138 nM
UGUGUUUACCUGACUCAGUGAUGUUGAGAAGGAGCGUGCUAAAGCACAGGUAGGUCGCUCAACCUAAAUUCAGGUGAGCACUAAA,350 nM,258 nM,312 nM,326 nM,257 nM
GUUACGCAUGGAAGGAGCGCAGGCUCAACUUGAAGCUCAGUGAUGUUGAGCAAAUUAAAACUGCAGGUAGGUCGCCAUGUGUAAC [Ex Arginine B K4 27],548 nM,474 nM,655 nM,644 nM,448 nM
UCUGGAGCAUAUGAUACCAGCAGUGAGAGACAGGAAGUAUAGUGAUGUUAUAUGAGAGAAUGCCCUUGGCAGCGUGUGCAGUGGG [SSTheophylB.O],119 nM,157 nM,108 nM,119 nM,75.2 nM
AGAACUGUCUGAGAUACCAGCUAAGGAGUGAUGUUCCUAAGUCCACGAAAGUGGACUCAUAGCCCUUGGCAGCUCAGACAGUUCA [#24 K4 Theophylline B Same State],1150 nM,675 nM,815 nM,565 nM,963 nM
UUUAGGAGCGGUGUUGAUUAGGGAGCGGAAGGAGCGCCGAUUAUGGCAGGUAGGUCGCCGGAAUGUAGUGAUGUUGCAUAGAGGG [ExArgA.V],214 nM,186 nM,185 nM,154 nM,166 nM
UCUAGUUCUACGGCCGCCACUAUCGAGCACGGGUAUUAGUGAUGUUGAGGUCGUGUCUCCCUCCCUAGGACCGGGUAGAUCUUAG [theeternabot_sameState_KL_Trp_B_4],890 nM,482 nM,667 nM,629 nM,557 nM
AAUAACUAGUAUAUUUUUAAUAAUACAGAUACCAGUGAUAAUAAACACCCUUGGCAGCUGAUCGAGUGAUGUUCGUUUAUUUUAA [JR_SSTheophyA_Sub002],84 nM,74.6 nM,93.3 nM,188 nM,66.2 nM
AAAUUUAUUAUAUUUGAAUAAAUAUGUGAUACCAGACAUUUAUAAGUCCCUUGGCAGCACAAUGCAGUGAUGUUGCUUAUAAUAA [JR_SSTheophyA_Sub018],89 nM,110 nM,93 nM,182 nM,73.8 nM

Sequence,apparent KD of K4 kissing-loop reporter (input ligand: FMN 200 uM),apparent KD of K4 kissing-loop reporter (input ligand: arginine 13.2 mM),apparent KD of K4 kissing-loop reporter (input ligand: none),apparent KD of K4 kissing-loop reporter [1],apparent KD of K4 kissing-loop reporter [2]
CUGGGUUGACGAAAAGUCAACAAAUGAGAAGGAGCGCACGAAAGUGCAGGUAGGUCGCUCAGUCCAGUGAUGUUGGAUCAUCCAG [#SwitchBubble 10 #K4Late],461 nM,602 nM,578 nM,480 nM,361 nM
AAGGCCACGAGAAGGAGCGUGUUGUGGAGUGAUGUUCCACUGUAGACCUAAGGUCUACAGGCACAGGUAGGUCGCUCGUGGUCAA [Omei KL Arginine B SS A v6],131 nM,110 nM,145 nM,131 nM,127 nM
UUUCGUUGAAGUGAUACCAGACUUGAAAGUGAUGUUUUCCAAUAAUUUAAAUUUUUAGCUGUCCCUUGGCAGCACAGUUUAUUUA [JR_Nu_ExcTheophyB_Sub025],210 nM,363 nM,275 nM,401 nM,181 nM
CCUAUCUCAUACGAUACCAGUCGUCGAGUGAUGUUCGAUUAAAUAUAUUUGCCAAAUAACGACCCUUGGCAGCGUAUGGGAUAGG [Ex Theophylline B K4 17],367 nM,328 nM,340 nM,417 nM,314 nM
GCCGUACGCAUGGAUACCAGCAGAACUGCCCUCCCAGUGAUGUUGGGAGGAUCUUUCCUUUGCCCUUGGCAGCCAUGCGUACGGC,126 nM,112 nM,124 nM,84.8 nM,117 nM
UUUUGGUUCUGAGGAUAUUCGAAGAAAUAUAGUGAUGUUAUAUAAGGAGGAGGAUGUAGGGAGGAAGGAGAAGGCAGAAGAGGAG [ExFMNB.J],1040 nM,915 nM,880 nM,377 nM,480 nM
AUUCUUAUAAUAACACUAUAUACAACUGAAGGAGCGACAAUAAAGUCAGGUAGGUCGCAGAAUAAAUGAGUGAUGUUCAUUUUUA [JR_ExcArginiA_Sub011],129 nM,153 nM,129 nM,150 nM,86.8 nM
AGGACGUGAGAAGAUACCAGAGAAUAAUGCAGUGAUGUUGCUAAAUAUAAUUUAAUAUAACUCCCUUGGCAGCUUAAGUUAGUCU [Theophylline b same state],75.2 nM,120 nM,98.7 nM,115 nM,73.9 nM
GGGAGUAGUGCGGCCGCCACUGAGAAAGAAGAAGAAUGUAGUGAUGUUAUGUAGGAAAGGAAGAACAGGACCGGGCAUUAGAUUU [SSTRyptB.H],478 nM,443 nM,354 nM,840 nM,497 nM
GUCCCGAGUGAUGUUCGGGUCGUUCGGGAAGGAGCGCCCGGAAGGGCAGGUAGGUCGCCCGGAUCCCUCAGGUAACUGAGGGACC [#2 Same State - Arginine A Attempt #25 (HarryS)],483 nM,334 nM,553 nM,450 nM,466 nM
UGUCAUUGGUCUGAUACCAGUACCCUUGGCAGCCAAGGAGUGAUGUUCCAAGGAUACCAGUACCCUUGGCAGCAGACCGAUGACU [TheoBS 25 #DoubleAptamer #SwitchBubble],884 nM,802 nM,758 nM,194 nM,964 nM
UGAUACCAGACGGCCGCCACUCCUGCAAGUCAAAGACUUGCUAAAAGGAUCGUCCAGUGAUGUUGGAGGACCGGGUCUGGUAUCU [TrypBX 19 #SwitchBubble #Palindromic #StaticStem],795 nM,621 nM,744 nM,638 nM,486 nM
UAGUCAUACAGAGGAUAUCGUAUGAGUGAUGUUCAUACGACAUAAUCGAGUUGUAUCGAUGUUCGACGAGAAGGCUGUAUGACUA [FMN B Ex t1b],210 nM,89.6 nM,118 nM,106 nM,111 nM
AAAUUCUUUUUUUUAUUUAAGUUUUCAGAAGGAGCGUGGUAGUACACAGGUAGGUCGCUGAAUUUUGGGCUAGUGAUGUUAGUUA [whbob_SS_Arginine_A_sa114],144 nM,195 nM,200 nM,191 nM,160 nM
UGUACCGAGUUAGGAUAUGUCGUCGAAAGACGAAAUGGAGUGAUGUUCCUUAAACUGCGAAAGCAGACAGAAGGGAUUUGGUACU [FmnBS 29 U11+U77],331 nM,442 nM,412 nM,510 nM,378 nM
